{
  "source": "patent US20250339569A1",
  "about": "(3B PHARMACEUTICALS, published 2025)",
  "key": {"[1]": {"molecular_target": "T1, human carbonic anhydrase 4 (CAIV), biotinylated (Sino Biological Cat #10472-H08H) (human, UniProt P22748 19-283, biotinylated (sites not given))", "T1 construct": "Bought protein, biotinylated and captured with the Biotin CAPture Kit; also called hCAIV-bio; carbonic anhydrase IV", "T1 sequence (P22748 19-283 limits assumed)": "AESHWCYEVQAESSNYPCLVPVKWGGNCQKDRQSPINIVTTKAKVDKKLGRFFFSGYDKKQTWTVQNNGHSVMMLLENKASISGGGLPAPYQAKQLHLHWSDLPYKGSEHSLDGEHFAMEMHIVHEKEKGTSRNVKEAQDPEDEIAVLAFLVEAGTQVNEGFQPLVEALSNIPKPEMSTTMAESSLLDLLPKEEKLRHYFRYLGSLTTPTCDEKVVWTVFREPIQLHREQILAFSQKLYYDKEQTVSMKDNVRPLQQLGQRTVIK", "test": "SPR (Biacore T200), biotinylated CAIV captured with Biotin CAPture Kit; limit of the category in which no binding is told"}, "[2]": {"molecular_target": "T2, human carbonic anhydrase 12 (CAXII), biotinylated (Sino Biological Cat #10617-H08H) (human, UniProt O43570 25-301, biotinylated (sites not given))", "T2 construct": "Bought protein, biotinylated and captured with the Biotin CAPture Kit; also called hCAXII-bio; carbonic anhydrase XII", "T2 sequence (O43570 25-301 limits assumed)": "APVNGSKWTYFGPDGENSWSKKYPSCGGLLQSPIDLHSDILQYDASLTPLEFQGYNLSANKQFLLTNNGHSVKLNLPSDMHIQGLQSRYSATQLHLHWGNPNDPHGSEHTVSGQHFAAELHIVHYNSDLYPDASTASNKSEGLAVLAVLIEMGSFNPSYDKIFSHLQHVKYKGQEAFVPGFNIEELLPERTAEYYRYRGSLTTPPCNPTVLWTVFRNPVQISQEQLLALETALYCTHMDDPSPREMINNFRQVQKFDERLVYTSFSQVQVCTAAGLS", "test": "SPR (Biacore T200), biotinylated CAXII captured with Biotin CAPture Kit; limit of the category in which no binding is told"}, "[3]": {"molecular_target": "T3, human carbonic anhydrase 14 (CAXIV), biotinylated (Sino Biological Cat #10458-H08H) (human, UniProt Q9ULX7 16-290, biotinylated (sites not given))", "T3 construct": "Bought protein, biotinylated and captured with the Biotin CAPture Kit; also called hCAXIV-bio; carbonic anhydrase XIV", "T3 sequence (Q9ULX7 16-290 limits assumed)": "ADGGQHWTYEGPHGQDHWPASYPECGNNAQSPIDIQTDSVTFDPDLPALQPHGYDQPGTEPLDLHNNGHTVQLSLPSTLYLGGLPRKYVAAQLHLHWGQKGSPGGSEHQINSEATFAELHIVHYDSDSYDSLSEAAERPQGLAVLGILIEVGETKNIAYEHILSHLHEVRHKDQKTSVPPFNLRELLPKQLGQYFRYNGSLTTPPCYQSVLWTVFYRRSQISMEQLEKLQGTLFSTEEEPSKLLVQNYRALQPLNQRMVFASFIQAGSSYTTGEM", "test": "SPR (Biacore T200), biotinylated CAXIV captured with Biotin CAPture Kit; limit of the category in which no binding is told"}, "[4]": {"molecular_target": "human carbonic anhydrase 9 (CAIX) (human, UniProt Q16790 38-459)", "test": "FACS competition on HT-29 cells, competitor tracer 3BP-4149; category C = pIC50 6.1-7.0", "experimental": "CAIX-expressing human HT-29 colorectal cancer cells (DSMZ, RRID: CVCL_0320) were cultured in McCoys's 5A modified medium (Biochrom, #F1015) including 10% fetal calf serum (FCS), 2 mM L-glutamine, 100 U/ml penicillin and 100 μg/mL streptomycin. Cells were detached with Accutase (Biolegend, #423201) and washed in FACS buffer (PBS including 1% FCS). Cells were diluted in FACS buffer to a final concentration of 500.000 cells per ml. 200 μL of the cell suspension were transferred to a u-shaped non-binding 96-well plate (Greiner) and cells were washed in ice-cold FACS buffer.\nWhen biotinylated compounds were used an additional incubation step with 1 μg/mL APC-Streptavidin (Miltenyi; #130-106-791) in 50 μL FACS buffer for 30 minutes on ice was performed.\nCells were washed twice with ice-cold FACS buffer and analyzed in an Attune NxT flow cytometer (Thermo Fisher). Median fluorescence intensities (MFI) of the APC/Cy5-channel were calculated by Attune NxT software."}, "[5]": {"molecular_target": "Fc-fusion protein of human carbonic anhydrase IX (human, UniProt Q16790 38-414)", "test": "SPR, captured hCAIX-Fc; t1/2 category A: >15.0 min"}, "[6]": {"molecular_target": "T4, human carbonic anhydrase XII (CAXII), biotinylated (human, UniProt O43570 25-301, biotinylated)", "T4 construct": "Bought (SinoBiological Cat #10617-H08H); also called hCAXII-bio", "T4 sequence (O43570 25-301 limits assumed)": "as the sequence (O43570 25-301 limits assumed) above", "test": "SPR, biotinylated CAXII captured (Biotin CAPture)", "description": "(§1) For each test compound, SPR raw data in the form of resonance units (RU) were plotted as sensorgrams using the Biacore™ T200 control software. The signal from the blank sensorgram was subtracted from that of the test compound sensorgram (blank corrected). The blank corrected sensorgram was corrected for baseline drift by subtracting the sensorgram of a SCK run without the test compound (running buffer only). […] Raw data and fit results were imported as text files in IDBS. The pKD value (negative decadic logarithm of dissociation constant) was calculated in the IDBS excel template."}, "[7]": {"molecular_target": "T5, human carbonic anhydrase XIV (CAXIV), biotinylated (human, UniProt Q9ULX7 16-290, biotinylated)", "T5 construct": "Bought (SinoBiological Cat #10458-H08H); also called hCAXIV-bio", "T5 sequence (Q9ULX7 16-290 limits assumed)": "as the sequence (Q9ULX7 16-290 limits assumed) above", "test": "SPR, biotinylated CAXIV captured (Biotin CAPture)", "description": "as §1"}, "[8]": {"molecular_target": "T6, human carbonic anhydrase IV (CAIV), biotinylated (human, UniProt P22748 19-283, limits assumed, biotinylated)", "T6 construct": "Bought (SinoBiological, Cat # printed 10472-1H081H); also called hCAIV-bio", "T6 sequence (P22748 19-283 limits assumed)": "as the sequence (P22748 19-283 limits assumed) above", "test": "SPR, biotinylated CAIV captured (Biotin CAPture)", "description": "as §1"}},
  "note": "Starred links: 1 amine or outer side, 2 acyl side, 3 side chain; linkers in the order of their positions; H or OH if unused. Positions of bridges follow the written chain, without caps; N, C: chain ends. Non-standard residues stand in square brackets, D forms with d. Primed or numbered codes have the meaning given here. No end group written: not given here. *: point of attachment. Aph(CCprAc) = 4-aminophenylalanine acylated on the ring amine with 1-cyano-1-cyclopropanecarboxylic acid, N#CC1(C(=O)Nc2ccc(C[C@H](N[*:1])C(=O)[*:2])cc2)CC1; Aph(MSAc) = 4-aminophenylalanine acylated on the ring amine with 2-methanesulfonylacetic acid, CS(=O)(=O)CC(=O)Nc1ccc(C[C@H](N[*:1])C(=O)[*:2])cc1; Aph(SaPr) = 4-amino-L-phenylalanine, ring amine acylated by 3-sulfamoylpropanoic acid, NS(=O)(=O)CCC(=O)Nc1ccc(C[C@H](N[*:1])C(=O)[*:2])cc1; Aph(Iva) = 4-aminophenylalanine acylated on the ring amine with isovaleric acid, CC(C)CC(=O)Nc1ccc(C[C@H](N[*:1])C(=O)[*:2])cc1; Aph(FAc) = 4-aminophenylalanine acylated on the ring amine with fluoroacetic acid, O=C(CF)Nc1ccc(C[C@H](N[*:1])C(=O)[*:2])cc1; Aph(Prp) = 4-aminophenylalanine acylated on the ring amine with propionic acid, CCC(=O)Nc1ccc(C[C@H](N[*:1])C(=O)[*:2])cc1; DOTA(Lu) = O=C1CN2CCN3CCN(CC(=O)*)CCN(CC2)CC(=O)[O][Lu]([O]1)[O]C(=O)C3; Phe(3-NHCO(CH2)3SO2NH2) = N[C@@H](Cc1cccc(NC(=O)CCCS(N)(=O)=O)c1)C(=O)O; APAc″ = 2-(4-(amino)piperidin-1-yl)acetic acid, NC1CCN(CC(=O)*)CC1; DOTA = O=C(O)CN1CCN(CC(=O)O)CCN(CC(=O)*)CCN(CC(=O)O)CC1; mXylylene = c1cc(C[*:1])cc(C[*:2])c1; PPAc″ = not defined here; Dap = NC[C@H](N)C(=O)O",
  "data": [
    {"binder": "{DOTA}-ECE[dP]D[Phe(3-NHCO(CH2)3SO2NH2)]LTW[Dap]C-NH2 (lactam 1-10; linker 2-11 via mXylylene, Bicyclic peptide with uncomplexed DOTA; also called DPI-4503)", "note": "[3BP-4503: DOTA-{Glu-[Cys(3MeBn)-Glu-pro-Asp-Af3(Cpsu)-Leu-Thr-Trp-Dap}-Cys]-NH2]", "values": [
      {"measurement": "pKD", "setting": "[1]", "value": "< 6"},
      {"measurement": "pKD", "setting": "[2]", "value": "< 6"},
      {"measurement": "pKD", "setting": "[3]", "value": "< 6"}
    ]},
    {"binder": "{DOTA-APAc″}-VYCE[dP]D[Aph(Prp)]LTWSC-NH2 (linker 3-12 via mXylylene)", "note": "[3BP-4347]", "values": [
      {"measurement": "pIC50", "setting": "[4]", "value": "6.1 to 7", "unit": "pic50"}
    ]},
    {"binder": "{DOTA-APAc″}-VYCE[dP]D[Aph(Iva)]LTWSC-NH2 (linker 3-12 via mXylylene)", "note": "[3BP-4348]", "values": [
      {"measurement": "pIC50", "setting": "[4]", "value": "6.1 to 7", "unit": "pic50"}
    ]},
    {"binder": "{DOTA-APAc″}-VYCE[dP]D[Aph(CCprAc)]LTWSC-NH2 (linker 3-12 via mXylylene)", "note": "[3BP-4357]", "values": [
      {"measurement": "pIC50", "setting": "[4]", "value": "6.1 to 7", "unit": "pic50"}
    ]},
    {"binder": "{DOTA-APAc″}-VYCE[dP]D[Aph(FAc)]LTWSC-NH2 (linker 3-12 via mXylylene)", "note": "[3BP-4358]", "values": [
      {"measurement": "pIC50", "setting": "[4]", "value": "6.1 to 7", "unit": "pic50"}
    ]},
    {"binder": "{DOTA-APAc″}-VYCE[dP]D[Aph(MSAc)]LTWSC-NH2 (linker 3-12 via mXylylene)", "note": "[3BP-4360]", "values": [
      {"measurement": "pIC50", "setting": "[4]", "value": "6.1 to 7", "unit": "pic50"}
    ]},
    {"binder": "QCE[dP]D[Phe(3-NHCO(CH2)3SO2NH2)]LTWSC-NH2 (linker 2-11 via mXylylene; not fully specified (N-terminus); printed as LuDOTA-PPAc-Gln-[Cys(3MeBn)-Glu-pro-Asp-Af3(Cpsu)-Leu-Thr-Trp-Ser-Cys]-NH2; also: lutetium complexed in DOTA, also called natLu-DPI-4452)", "note": "[3BP-4555: LuDOTA-PPAc-Gln-[Cys(3MeBn)-Glu-pro-Asp-Af3(Cpsu)-Leu-Thr-Trp-Ser-Cys]-NH2]", "values": [
      {"measurement": "pKD", "setting": "[1]", "value": "< 6"},
      {"measurement": "pKD", "setting": "[2]", "value": "< 6"},
      {"measurement": "pKD", "setting": "[3]", "value": "< 6"}
    ]},
    {"binder": "{DOTA-PPAc″}-QCE[dP]D[Phe(3-NHCO(CH2)3SO2NH2)]LTWSC-NH2 (linker 2-11 via mXylylene; reading uncertain, also called DPI-4452)", "note": "[3BP-4452]", "values": [
      {"measurement": "t1/2 (half-life of the complex, SPR)", "setting": "[5]", "value": "> 15", "unit": "min"},
      {"measurement": "pKD", "setting": "[6]", "value": "< 6", "unit": "pkd"},
      {"measurement": "pKD", "setting": "[7]", "value": "< 6", "unit": "pkd"},
      {"measurement": "pKD", "setting": "[8]", "value": "< 6", "unit": "pkd"}
    ]},
    {"binder": "{DOTA(Lu)}-QCE[dP]D[Aph(SaPr)]LTWSC-NH2 (linker 2-11 via mXylylene; also: DOTA complexing non-radioactive lutetium, also called natLu-3BP-4501)", "note": "[3BP-4581: LuDOTA-Gln-[Cys(3MeBn)-Glu-pro-Asp-Aph(SaPr)-Leu-Thr-Trp-Ser-Cys]-NH2]", "values": [
      {"measurement": "pKD", "setting": "[1]", "value": "< 6"},
      {"measurement": "pKD", "setting": "[2]", "value": "< 6"},
      {"measurement": "pKD", "setting": "[3]", "value": "< 6"}
    ]},
    {"binder": "{DOTA}-QCE[dP]D[Aph(SaPr)]LTWSC-NH2 (linker 2-11 via mXylylene; SMILES CC(C)C[C@@H]1NC(=O)[C@H](Cc2ccc(NC(=O)CCS(N)(=O)=O)cc2)NC(=O)[C@H](CC(=O)O)NC(=O)[C@H]2CCCN2C(=O)[C@H](CCC(=O)O)NC(=O)[C@@H](NC(=O)[C@H](CCC(N)=O)NC(=O)CN2CCN(CC(=O)O)CCN(CC(=O)O)CCN(CC(=O)O)CC2)CSCc2cccc(c2)CSC[C@@H](C(N)=O)NC(=O)[C@H](CO)NC(=O)[C@H](Cc2c[nH]c3ccccc23)NC(=O)[C@H]([C@@H](C)O)NC1=O, also called DPI-4501)", "note": "[3BP-4501]", "values": [
      {"measurement": "t1/2 (half-life of the complex, SPR)", "setting": "[5]", "value": "> 15", "unit": "min"},
      {"measurement": "pKD", "setting": "[6]", "value": "< 6", "unit": "pkd"},
      {"measurement": "pKD", "setting": "[7]", "value": "< 6", "unit": "pkd"},
      {"measurement": "pKD", "setting": "[8]", "value": "< 6", "unit": "pkd"}
    ]},
    {"binder": "QCE[dP]D[Phe(3-NHCO(CH2)3SO2NH2)]LTWSC-NH2 (linker 2-11 via mXylylene; not fully specified (N-terminus); also: Lu complexed in DOTA, also called natLu-DPI-4452)", "note": "[3BP-4555]", "values": [
      {"measurement": "t1/2 (half-life of the complex, SPR)", "setting": "[5]", "value": "> 15", "unit": "min"},
      {"measurement": "pKD", "setting": "[6]", "value": "< 6", "unit": "pkd"},
      {"measurement": "pKD", "setting": "[7]", "value": "< 6", "unit": "pkd"},
      {"measurement": "pKD", "setting": "[8]", "value": "< 6", "unit": "pkd"}
    ]}
  ]
}
